Experimental data as given in patent US20250213627A1, “RECOMBINANT MICROORGANISM-BASED METHODS AND COMPOSITIONS FOR TREATMENT OF DISEASE” (Baylor College of Medicine, priority 2021, published 2025).

Assays:
[1] = target: Kv1.3 potassium channel (species not stated for this experiment); assay: cell-based or functional assay
[2] = target: rat IgG; assay: ELISA positive control, wells coated with 1 µg/ml rat IgG, anti-rat IgG-HRP and TMB

Substance | block of peak Kv1.3 currents by culture supernatant (patch-clamp) [1] | reading at 450 nm [2]
HA-tagged ShK-235 secreted by LrS235-HA (peptide) | 25% | –
anti-rat IgG-HRP (antibody) | – | 3.3 OD 450 nm
